Biological target: T1, septin-7 (commercially purified, LSBio) (UniProt Q16181 1-437, labelled with RED-tris-NTA 2nd generation dye (Monolith His-Tag labeling kit))
T1 sequence (looked up): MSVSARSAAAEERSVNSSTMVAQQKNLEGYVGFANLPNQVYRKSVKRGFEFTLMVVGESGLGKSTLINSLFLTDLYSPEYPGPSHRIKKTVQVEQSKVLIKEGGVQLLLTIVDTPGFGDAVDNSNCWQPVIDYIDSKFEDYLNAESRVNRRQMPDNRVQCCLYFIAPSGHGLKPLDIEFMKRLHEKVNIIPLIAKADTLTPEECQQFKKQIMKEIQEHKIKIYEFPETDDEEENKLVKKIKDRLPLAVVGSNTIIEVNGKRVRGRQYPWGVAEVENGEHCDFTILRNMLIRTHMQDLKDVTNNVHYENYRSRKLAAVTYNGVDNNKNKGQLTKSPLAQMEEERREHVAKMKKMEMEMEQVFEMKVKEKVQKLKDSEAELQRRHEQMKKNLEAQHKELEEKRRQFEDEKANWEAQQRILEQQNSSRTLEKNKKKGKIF
Experiment: MST

B1: SOD1 trimer, F20L-H46Q (FH) trimer-stabilising mutant (enzyme)
chain: not shown
  Kd: 6.84 µM

From article PMC11455619 (Structure (London, England : 1993), 2024)
